Data on 19 sequences can be found in the DeepSol protein solubility set.

A short description of this series: soluble on expression in E. coli; label from the status in PepcDB or PDB records.
Turning to “MSEEQKTISISELESMNIKQLYEIAKSLGIPRYTSMRKRDLIFAILKAQTESTGYFFGEGVLEIHPEGFGFLRRIEDNLLPSNDDIYISPSQIRKFNLNTGDIISGVIRKPKEGEKYFAMIKIEAINYRPVEAVNDRVNFDNLTPDYPRERFILETDPKIYSTRLIDLFAPIGKGQRGMIVAPPKAGKTTILKEIANGIAENHPDTIRIILLIDERPEEVTDIRESTNAIVIAAPFDMPPDKQVKVAELTLEMAKRLVEFNYDVVILLDSLTRLARVYNIVVPPSGKLLTGGVDPAALYKPKRFFGAARNTREGGSLTIIATALVETGSKMDEVIFEEFKGTGNMELVLSRQLANKRIFPAINLLLSGTRREELLLDEETLKKVWLLRRMLSAMTEEEGLTLILNKLSETSSNEEFLKLIDKEKARY”, the “soluble on expression in E. coli” value is recorded as “soluble”.

Turning to “MSEIALEAWGEHEALLLKPPRSPLSIPPPKPRTAVLFPRREGFYTELGGYLPEVRLRFETYGTLSRRRDNAVLVFHALTGSAHLAGTYDEETFRSLSPLEQAFGREGWWDSLVGPGRILDPALYYVVSANHLGSCYGSTGPLSLDPRTGRPYGRDFPPLTIRDLARAQARLLDHLGVEKAIVIGGSLGGMVALEFALMYPERVKKLVVLAAPARHGPWARAFNHLSRQAILQDPEYQKGNPAPKGMALARGIAMMSYRAPEGFEARWGAEPELGETYLDYQGEKFLRRFHAESYLVLSRAMDTHDVGRGRGGVEEALKRLRAIPSLFVGIDTDLLYPAWEVRQAAKAAGARYREIKSPHGHDAFLIETDQVEEILDAFLP”, the “soluble on expression in E. coli” value was “soluble”. As to “MSEIKRLEINYKTDELFENFRAFGNKDLYMVNELNGQMIDASSDSPFYGIFVGDQLGARMALLKKGDVEEIYFPDFEDYILLWKLEVLPKYQNRGYASELIDFAKSFNMPIKAIGRNDSKDFFLHHGFTDVEAKNIEGHDVLLWKPIRLEHHHHHH”, the “soluble on expression in E. coli” value is reported as “not soluble”. As for “MSEKETPSPVLDVKKEKNEETGIDEEKSSEDDCSKRSKVKSNPSKFSVNSILSPLESLVRVQQQLLKMAASKSGTPGTNAGVPGAFPYGPGRLPGNYFAGPFPGYSGAQPNWYNGNDPRFAAAAALLPCSIDPVRSAINHQFSMSSMSQRRKRRVLFSQAQVYELERRFKQAKYLTAPEREQLANSIRLTPTQVKIWFQNHRYKCKRQEKEKAMSGLGHSEDGSSPPPDNDDDDDKYSIEMDDKDDEEEEESEKPVLKPSGVFGLPYPPNAAAAAAAAAAAFNFPFAAQGPNPAYYMRW”, the entry is “not soluble”; as for “MSEKSIVTKILRYLKTVPGCFCWKEHGGMYGTAGLPDIIACVNGRFIAFEVKTPSGKTTKLQEATIKKILNAGGVAAVVHSVDEVKVILEKHDLLQRTKI”, “soluble”. Regarding “MSEKTMGPRQSRPGILTPAQERVAQAIARLGPEISLTDISRMVGGHPNASRQHIKTLENSGYISATQKRGAAGRPAQLYSITPEGLRALAGNATLIAHTSFVRSLSHYIANQPHPEERALALGSQMVRDEGPLPGATKVDKVVNLLEKYGFAPTQAGTEIQLLTCPVLDSAVRHPEVVCTMHRGILNEITGNNTTFILEPFARPGMCVIRTVSPTANPTQT”, the “soluble on expression in E. coli” value was “not soluble”. For “MSELLQYSRIKYECTCGKFRTLPDLVFCRYCFKIKCDDCSLGEVDNIFCPRCLEPSSVPEARLKKHKCASCNDCPKCANVLSARTENDNVYLVCQYCRWSSREANQEDQENTKSWPTKENPLVNQLGEVTAYMKRLELIENAPKDLKKGKSGKAWTAFHLKDKFGFQQMVDKRKKALAPEMNPVDAHAPTEAPTLEDEIKERTDDLRTLDQIIMQPLINISEPLLPVQVPLAGRVQVRCDECERTLIKRDFGVTTFKFKISSFARQFVPDIRMSRPVDDLKVGETSHVFLSITNLSSSAMDLTIAPQSGNGFIQCSSDPIQLLLPSSRASDTAAPGVHADQSDVIVFRQHNRVGLRLDVIPTEMDLSSPCLNLLITYCQDGSFRLSSASDKILKPEETCPDPILSANLKVDLR”, the “soluble on expression in E. coli” value is “not soluble”. Take “MSELTSNRIRTTAAKLGLPHLAEALNQYVQRADEAKMGYLDFLDLVLAEELAVRDDRRFRNGLRLSKLPHHKTLEDYDFSFQPDLDPRKVKDLATLSFIEDKANVALLGPPGVGKTHIAVALAVAACRAGYSIYFTSLDDMVRHLKAAEDQGRLISKLTSYLRPAVLVVDEVGYQPLERAEANLVFQVISKRYEKGSIILTSNKTFGEWGQVFGDEVLATAILDRLLHHCEVVSINGNSYRLKNRLQAIERDTDVALEHHHHHH”: the “soluble on expression in E. coli” value is “soluble”. Turning to “MSEPLLRGLAAGDPPSATGPVTGSADKVADVLIVGGGLVGGTLACALAEKGVSVVVIDGEDPEALLAAGYDGRCSAIALACQRLLDTIGLWDLLGGESQPILDIRVVDGGSPLFLHYAQAEAQGPMGYMVENRLLRQAILTRLGRLPAATLLAPARMTALRRDLDGVSATLSDGQTVRARLVVGADGRRSQVRESAGIGIRTLGYGQTAIVLTVEHERSHRGCAVEHFLPAGPFAILPMPGNRSSLVWTERSDLVPGLLALPAEHFQAELERRFGDHLGWVRPVGPRFSYRLTLQAANRYVDHRLALVGDAAHGMHPVAGQGMNYGLRDVAVLAERLVAAQRLGLDPGAPALLAEYEALRRPDNLLMLAITDALVRLFSNDIAPVALARRLGIGAVERMGPLKRLFMRHAMGTLKLGPEPPRLMRGVPLLEHHHHHH”, the “soluble on expression in E. coli” value is reported as “soluble”. As for “MSEPSNLVSKFQKLRVEASKIQNEFKEKPSYTLFKETLDISEKLLEKQFEFNDEMKQIQQNVMSELKSVKKELKQATSIKDLLEILEIIQKIFKKQDEFQQVQENQNKSIENLNSELKTVKAELNETKKQQESQEKLIDNSDKNLKLILESILKFQKSQDQIMMKIMEGSAVQDVPLGTVELTKIDPFFEILVIWTESCGIFASENHWKLRVCGSDTIRHIKLRINSLAKVDISSFRMVLRGKLLEDHHSLAYYNIQEGALIWLYSHLKMSETSSLMSQFQKLRVETSKIYNEFTEMVKNETSDMKKQQETQILKEQDEFQDEIRQEFLKIQENENKLIEKLMSELKTLKTELNETKNQISDLHNATKQQESQAQSMNDLLTKNSNNNLKMMLKIQEGQDRIMMKIQEGAAVKDVPIESGELAKNDSMFKIFVSWSIPGGIFVSENRRKLPVYESNTIRQIKLRINSLKSQDQMKIQEGEFAKKIEESVAPVKTPLEAPIEDKKLDNKKPFFKITVHLHGGPNASVYGRKYNHLVFDAHTIRDLKVRIKALIMQSSPIKLRTELYRLFFVYTLLEDHQTIAYYKFKKAQHLT”, the “soluble on expression in E. coli” value is “soluble”. “MSEQPQQRSTEEVEAIKEDILTALETVIDPELGIDIVNLGLIYEVEFAEETGDTVIKMTLTTMGCPLADVLTEQIHGVLKDIPEVNNIEVKLVWYPAWTTDKMSRYARIALGIR”: the “soluble on expression in E. coli” value is reported as “not soluble”. In the case of “MSERESLSGADNAWRRMGTPTNLMTITGVMMFDERMTYEDLCNRLEERLLRFERFQQRIGGRKRRFRQPYWETVDGFDVEPHVYHISLPEPQDKATFEAFVGKLMSRPLDESRPLWEAYLVDGAGPGEGNAVAFRLNHSIGDGFALLYVLLGLVDNPGDIELPSGMVSAPDDIGDDADSGADGGNGSDESDVASGDGQPADTDSKSDGERGSSGLPSPVSAAGTAATGVATGYDLLFGDDDPDTSLRGELGQTKRAAWTDEIPLEQVRTVCEAQPHRATINDVLLAALAGALRRLLEDRGEPVDGMELHGTVPVNLKPMAERDGSLGNNFGLVFLPLPVGTEPLQERISIIHEWMDGKRAGIQAFLMYALLTIGGHVPEYVQKKVMTLFEDRATGVVTNVPGPTDAIQFAGREITDMIFWVPQANEQGIGISIFSYDGNVRVGVAADENLLGAPGELAAAFEAEMEALLEDAELEHHHHHH”, the “soluble on expression in E. coli” value is “soluble”.

As for “MSESFDCAKCNESLYGRKYIQTDSGPYCVPCYDNTFANTCAECQQLIGHDSRELFYEDRHFHEGCFRCCRCQRSLADEPFTCQDSELLCNDCYCSAFSSQCSACGETVMPGSRKLEYGGQTWHEHCFLCSGCEQPLGSRSFVPDKGAHYCVPCYENKFAPRCARCSKTLTQGGVTYRDQPWHRECLVCTGCQTPLAGQQFTSRDEDPYCVACFGELFAPKCSSCKRPIVGLGGGKYVSFEDRHWHHNCFSCARCSTSLVGQGFVPDGDQVLCQGCSQAGP”, the “soluble on expression in E. coli” value is “soluble”. In the case of “MSESRLLTLRDYIRWAVSRFHAAGLFFGHGTDNAWDEARHLVLGSLHLPWEISDSYLDCRLEDDERAELAEILRRRIEERIPAAYLLGEAWFCGIPFSVDERVLVPRSPIAELIEQRFAPWLPAEPARILDLCTGSGCIGIACAYAFEQAEVVLADLSFDALEVANVNIERHDLGERVYTVQGDGFAGLPGQRFDLIVSNPPYVDAEDFADMPAEFHHEPELGLACGDDGLDLVRRMLAEAADHLSEKGLLIVEVGNSEVHVQALYPEVDFTWLEFEHGGHGVFMLSAAQCREHRELFRSRLEK”, the “soluble on expression in E. coli” value is “not soluble”.

As for “MSESVQSNSAVLVHFTLKLDDGTTAESTRNNGKPALFRLGDASLSEGLEQHLLGLKVGDKTTFSLEPDAAFGVPSPDLIQYFSRREFMDAGEPEIGAIMLFTAMDGSEMPGVIREINGDSITVDFNHPLAGQTVHFDIEVLEIDPALEA”, the “soluble on expression in E. coli” value is given as “soluble”. “MSETFFHLLGPRTQPNDDSFSMNPLPITCQVNDEPSMAALEQCAHSPQVIALLNELQHQLSQRQPPLGEVLAVDLLNLNADDRHFINTLLGEGEVSVRIQQADDSESEIQEAIFCGLWRVRRRRGEKLLEDKLEAGCAPLALWQAATQNLLPTDSLLPPPIDGLMNGLPLAHELLAHVRNPDAQPHSINLTQLPISEADRLFLSRLCGPGNIQIRTIGYGESYINATGLRHVWHLRCTDTLKGPLLESYEICPIPEVVLAAPEDLVDSAQRLSEVCQWLAEAAPT”: the “soluble on expression in E. coli” value is reported as “not soluble”.

Turning to “MSETVQLDVGGTIFKTSKSTLTKFNGFLKIMLESDIGLKIDESGSIFIDRSPKHFDLILNFMRDGDVVLPSCELTVKELLAEAQFYLLDELIELCSLKIEPVQAPKIKLRFIENDSQLLQILAAQQKPMLIIEYCMVGNDMSIPYNFNLYEFIEKQSHQFDIYFQRLSEDESSHKWKARIKWKPTENGYYSQFPYNLRINRGGRIIRDAKFLFLFFSSWLSSKNHCSLLDMCMIPIDCIVCPFQKISMCVPSLIRIPISSRFISRNIKIISFGLQR”, the “soluble on expression in E. coli” value is “soluble”. As for “MSEVKKTKVHLISGFLGTGKTTALKSLMAQKDPNEKWVIIVNEFGEIGIDGAVLSDNGIPVAEIAGGCLCCTAGPQMGVTVQKMLRDAKPDRLMIEASGLAHAASVIDELKAKPLDSLLEIGAVFTVVDPRQFINPDYAQQALYKDQIGICDVLAASKTDLCTPEQLAEFHDKAAKLFPPKAKVVEVQNAQLDIQWLDIPVVEKSRYRLKALPDNTMGFQSQGFTFPAGRDFNGEKLTNFFNDLPKMTEGLVRAKGVFQVLGTWVWLNWVDGQWGANQVSWRRDSRFELIAKSFDADLIEQKLKDALELEHHHHHH”, the entry is “soluble”.

As to “MSEVLNRQSREITTIVSQPNISRPNYQREKGKERLLGIKATESSNKAGQSFVPQLNPSGTLFTISMKPPAKINTGYTPVDEQKEVKAEVRNSEITEKSFGQAKFIGVSAGNTVGYVIPNLEPGLSQYLQANRSLRAIGVISSRVGAAAQIMAADEAVKKTNSELIRLELARDELGGPGHGVFALFGAEDVADVIRAVEIALKATEEYYQNIKNTPAGKIETHYTARAAAALNKAFGAPLNQAFGIIIGAPAGVGLLMSDTALKTAHVTMVSFWGPSVVQAFANEVWFTVTGDSAAVKNALEAAREVGLQVLAEFRA”, the “soluble on expression in E. coli” value was “not soluble”.
